Target: T1, DYRK4-His (UniProt Q9NR20 1-520)
T1 construct: also called recombinant DYRK4; pET30a-DYRK4-his; not shown: His, C-terminal, kept
T1 sequence (looked up): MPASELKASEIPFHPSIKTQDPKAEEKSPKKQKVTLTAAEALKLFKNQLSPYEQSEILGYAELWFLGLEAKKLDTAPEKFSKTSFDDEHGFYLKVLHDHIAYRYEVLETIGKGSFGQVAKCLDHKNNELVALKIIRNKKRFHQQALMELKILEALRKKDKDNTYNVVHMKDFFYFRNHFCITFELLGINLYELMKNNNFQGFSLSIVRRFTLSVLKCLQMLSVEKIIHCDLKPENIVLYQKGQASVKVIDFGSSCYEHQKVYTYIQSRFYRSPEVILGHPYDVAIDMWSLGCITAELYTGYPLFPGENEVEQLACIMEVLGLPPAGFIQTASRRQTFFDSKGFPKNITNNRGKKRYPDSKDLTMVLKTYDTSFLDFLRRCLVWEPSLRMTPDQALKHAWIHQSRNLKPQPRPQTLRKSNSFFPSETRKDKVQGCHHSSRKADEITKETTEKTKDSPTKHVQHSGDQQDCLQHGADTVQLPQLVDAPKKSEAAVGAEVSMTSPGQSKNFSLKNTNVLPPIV
Assay: pull-down
Conditions: both partners purified

binding result: binds
B1: GST-IRF3 (natural protein, UniProt Q14653 1-427, looked up)
chain: MGTPKPRILPWLVSQLDLGQLEGVAWVNKSRTRFRIPWKHGLRQDAQQEDFGIFQAWAEATGAYVPGRDKPDLPTWKRNFRSALNRKEGLRLAEDRSKDPHDPHKIYEFVNSGVGDFSQPDTSPDTNGGGSTSDTQEDILDELLGNMVLAPLPDPGPPSLAVAPEPCPQPLRSPSLDNPTPFPNLGPSENPLKRLLVPGEEWEFEVTAFYRGRQVFQQTISCPEGLRLVGSEVGDRTLPGWPVTLPDPGMSLTDRGVMSYVRHVLSCLGGGLALWRAGQWLWAQRLGHCHTYWAVSEELLPNSGHGPDGEVPKDKEGGVFDLGPFIVDLITFTEGSGRSPRYALWFCVGESWPQDQPWTKRLVMVKVVPTCLRALVEMARVGGASSLENTVDLHISNSHPLSLTSDQYKAYLQDLVEGMDFQGPGES
notes: also called pGEX6P-1-GST-IRF3; not shown: GST, N-terminal, kept

From publication PMC11811199 (EMBO Reports, 2024)
